According to patent US20210309710A1 (DAEWOONG PHARMACEUTICAL, published 2021):

Biological target: Recombinant human serum albumin (human, UniProt P02768 25-609)
Assay: SPR (BIACORE 3000), recombinant HSA immobilized on CM5 chip
Method: To measure the binding affinities of the ABD-fused insulin analogue proteins for albumin, a surface plasmon resonance (SPR, BIACORE 3000, GE healthcare) analysis method was used. Recombinant human serum albumin was immobilized on a CM5 chip by an amine coupling method, and the ABD or ABD-fused insulin analogues diluted to five or more concentrations were bound thereto, and the affinities thereof for the human serum albumin were measured.

Recombinant human serum albumin, sequence (P02768 25-609 limits assumed): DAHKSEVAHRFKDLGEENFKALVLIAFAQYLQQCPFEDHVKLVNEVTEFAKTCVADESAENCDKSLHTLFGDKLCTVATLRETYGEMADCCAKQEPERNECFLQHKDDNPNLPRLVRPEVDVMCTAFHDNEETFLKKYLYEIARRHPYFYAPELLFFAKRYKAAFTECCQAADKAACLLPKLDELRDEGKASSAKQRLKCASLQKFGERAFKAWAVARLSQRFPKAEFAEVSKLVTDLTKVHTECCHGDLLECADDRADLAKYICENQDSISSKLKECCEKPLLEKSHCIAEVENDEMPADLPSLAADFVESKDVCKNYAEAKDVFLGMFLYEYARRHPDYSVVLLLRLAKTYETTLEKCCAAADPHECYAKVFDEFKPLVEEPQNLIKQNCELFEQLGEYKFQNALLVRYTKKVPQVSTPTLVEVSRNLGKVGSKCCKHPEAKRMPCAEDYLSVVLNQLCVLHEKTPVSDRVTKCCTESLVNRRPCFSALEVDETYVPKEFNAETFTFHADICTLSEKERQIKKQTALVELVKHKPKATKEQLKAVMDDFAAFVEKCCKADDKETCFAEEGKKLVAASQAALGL

Kd: 7.29 pM
koff: 2.41e-05 s⁻¹
kon: 5.93e+06 M⁻¹ s⁻¹
Binder: LAEAKEAANAELDSYGVSDFYKKLIDKAKTVEGVEALKDAILAALP (designed binder) [albumin-binding domain (ABD)]
